This experiment deals with anti-SKL-reactive polypeptides. Nature of the experiment: co-IP.

B1: Pay32p (natural protein)
chain: MSFMRGGSECSTGRNPLSQFTKHTAEDRSLQHDRVAGPSGGRVGGMRSNTGEMSQQDREMMARFGAAGPEQSSFNYEQMRHELHNMGAQGGQIPQVPSQQGAANGGQWARDFGGQQTAPGAAPQDAKNWNAEFQRGGSPAEAMQQQGPGPMQGGMGMGGMPMYGMARPMYSGMSANMAPQFQPQQANARVVELDEQNWEEQFKQMDSAVGKGKEVEEQTAETATATETVTETETTTEDKPMDIKNMDFENIWKNLQVNVLDNMDEWLEETNSPAWERDFHEYTHNRPEFADYQFEENNQFMEHPDPFKIGVELMETGGRLSEAALAFEAAVQKNTEHAEAWGRLGACQAQNEKEDPAIRALERCIKLEPGNLSALMNLSVSYTNEGYENAAYATLERWLATKYPEVVDQARNQEPRLGNEDKFQLHSRVTELFIRAAQLSPDGANIDADVQVGLGVLFYGNEEYDKAIDCFNAAIAVRPDDALLWNRLGATLANSHRSEEAIDAYYKALELRPSFVRARYNLGVSCINIGCYKEAAQYLLGALSMHKVEGVQDDVLANQSTNLYDTLKRVFLGMDRRDLVAKVGNGMDVNQFRNEFEF
In turn, B1 had a percent of Pay32p present in the complex of 84.6%.
